Values quoted from earlier work as cited in PMC10878502.

How the values were obtained:
ASPP1 (Homo sapiens) = ASPP1 (Homo sapiens) (UniProt Q96KQ4)
ASPP2 (Homo sapiens) = ASPP2 (Homo sapiens) (UniProt Q13625)
[1] = molecular target: iASPP ANK-SH3 (Homo sapiens) (UniProt Q8WUF5)
[2] = molecular target: ASPP2 ANK-SH3 (Homo sapiens) (UniProt Q13625)
ASPP2 ANK-SH3 (Homo sapiens), sequence (Q13625 892-1128): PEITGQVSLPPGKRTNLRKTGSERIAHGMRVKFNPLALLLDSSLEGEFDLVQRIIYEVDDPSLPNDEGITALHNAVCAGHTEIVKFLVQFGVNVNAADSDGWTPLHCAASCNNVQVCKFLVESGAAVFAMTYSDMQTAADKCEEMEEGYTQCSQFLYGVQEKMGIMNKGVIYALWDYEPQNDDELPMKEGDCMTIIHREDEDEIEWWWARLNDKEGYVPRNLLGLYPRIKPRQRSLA

iASPP ANK-SH3 (Homo sapiens), sequence (Q8WUF5 608-828): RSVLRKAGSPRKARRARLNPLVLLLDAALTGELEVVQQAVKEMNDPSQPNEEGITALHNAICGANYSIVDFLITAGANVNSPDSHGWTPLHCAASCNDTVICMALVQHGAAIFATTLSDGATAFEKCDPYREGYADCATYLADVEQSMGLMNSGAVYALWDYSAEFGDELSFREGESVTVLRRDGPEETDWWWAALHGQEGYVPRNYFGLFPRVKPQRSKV
ASPP2 (Homo sapiens), sequence (Q13625 whole entry): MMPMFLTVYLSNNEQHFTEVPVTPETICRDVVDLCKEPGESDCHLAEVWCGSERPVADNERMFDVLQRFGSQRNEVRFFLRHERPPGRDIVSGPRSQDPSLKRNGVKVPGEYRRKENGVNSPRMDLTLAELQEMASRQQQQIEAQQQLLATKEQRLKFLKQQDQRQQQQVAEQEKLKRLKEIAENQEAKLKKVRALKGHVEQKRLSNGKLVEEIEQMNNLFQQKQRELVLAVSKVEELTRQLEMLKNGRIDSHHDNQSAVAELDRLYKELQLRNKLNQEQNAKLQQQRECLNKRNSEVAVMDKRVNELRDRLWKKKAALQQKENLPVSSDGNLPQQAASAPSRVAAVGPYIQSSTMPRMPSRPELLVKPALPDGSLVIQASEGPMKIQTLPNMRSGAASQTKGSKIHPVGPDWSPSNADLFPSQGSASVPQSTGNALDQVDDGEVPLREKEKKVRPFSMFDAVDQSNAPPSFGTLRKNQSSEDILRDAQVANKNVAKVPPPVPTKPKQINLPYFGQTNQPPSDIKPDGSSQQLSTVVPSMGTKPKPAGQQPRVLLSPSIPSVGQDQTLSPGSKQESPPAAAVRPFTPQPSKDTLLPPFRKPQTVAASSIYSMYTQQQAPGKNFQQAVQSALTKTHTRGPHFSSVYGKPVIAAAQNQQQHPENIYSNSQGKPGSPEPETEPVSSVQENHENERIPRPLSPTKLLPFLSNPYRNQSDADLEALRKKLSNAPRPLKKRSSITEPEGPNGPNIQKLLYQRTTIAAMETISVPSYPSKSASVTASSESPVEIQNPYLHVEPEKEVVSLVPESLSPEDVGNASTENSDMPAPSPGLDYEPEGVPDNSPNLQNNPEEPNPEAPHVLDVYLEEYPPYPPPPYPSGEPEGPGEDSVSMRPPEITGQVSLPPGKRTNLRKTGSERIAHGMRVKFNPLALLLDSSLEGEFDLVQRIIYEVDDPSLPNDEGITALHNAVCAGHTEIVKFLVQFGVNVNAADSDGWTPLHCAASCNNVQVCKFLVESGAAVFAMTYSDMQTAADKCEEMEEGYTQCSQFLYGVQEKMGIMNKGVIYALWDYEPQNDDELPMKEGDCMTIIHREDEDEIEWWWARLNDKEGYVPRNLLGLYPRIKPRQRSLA
ASPP1 (Homo sapiens), sequence (Q96KQ4 whole entry): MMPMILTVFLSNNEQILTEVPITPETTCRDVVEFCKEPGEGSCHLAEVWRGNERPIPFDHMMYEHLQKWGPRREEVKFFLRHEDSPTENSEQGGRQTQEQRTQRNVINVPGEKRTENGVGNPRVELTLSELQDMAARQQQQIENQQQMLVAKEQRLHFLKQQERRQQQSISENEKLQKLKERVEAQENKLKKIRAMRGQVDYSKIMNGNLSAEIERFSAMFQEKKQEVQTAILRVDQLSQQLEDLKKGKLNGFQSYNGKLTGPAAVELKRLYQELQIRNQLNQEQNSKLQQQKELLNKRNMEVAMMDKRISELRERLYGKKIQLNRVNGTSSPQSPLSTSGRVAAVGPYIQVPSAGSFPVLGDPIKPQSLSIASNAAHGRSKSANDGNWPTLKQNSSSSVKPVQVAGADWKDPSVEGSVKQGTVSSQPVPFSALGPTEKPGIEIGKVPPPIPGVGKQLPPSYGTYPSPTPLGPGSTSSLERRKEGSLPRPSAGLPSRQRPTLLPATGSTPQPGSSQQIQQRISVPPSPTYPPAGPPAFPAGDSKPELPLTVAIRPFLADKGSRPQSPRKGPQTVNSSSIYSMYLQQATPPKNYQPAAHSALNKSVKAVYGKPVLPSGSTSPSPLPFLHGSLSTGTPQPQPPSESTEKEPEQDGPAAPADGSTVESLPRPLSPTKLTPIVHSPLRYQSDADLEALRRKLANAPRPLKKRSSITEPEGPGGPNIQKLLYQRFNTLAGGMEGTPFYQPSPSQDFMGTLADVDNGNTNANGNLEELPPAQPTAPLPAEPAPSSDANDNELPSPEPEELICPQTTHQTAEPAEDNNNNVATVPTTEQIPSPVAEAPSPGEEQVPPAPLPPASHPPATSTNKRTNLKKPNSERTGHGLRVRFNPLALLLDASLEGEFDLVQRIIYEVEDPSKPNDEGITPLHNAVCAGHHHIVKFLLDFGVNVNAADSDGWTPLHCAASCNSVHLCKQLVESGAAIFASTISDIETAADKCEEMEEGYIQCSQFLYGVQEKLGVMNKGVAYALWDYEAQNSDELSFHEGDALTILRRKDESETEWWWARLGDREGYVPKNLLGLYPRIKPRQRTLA

Substance | Kd (ASPP1 (Homo sapiens)) | Kd (ASPP2 (Homo sapiens)) | Kd [1] | Kd [2]
p53 (from UniProt P04637) | 500 nM | 5000 nM |  | 
p53 DBD (from UniProt P04637) |  |  | 23.3 nM | 26.4 nM
